From the supplement of paper PMC9112550, “Optimization of the antimicrobial peptide Bac7 by deep mutational scanning” (BMC Biology, 2022) come the findings set out here.
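Note: peptides expressed intracellularly from a pBAD plasmid library in pooled LB shake-flask culture, induced with 0.3% L-arabinose, DNA abundance read by NGS, three biological replicates, DESeq2 with apeglm shrinkage.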

For this data set, the system named is Escherichia coli TOP10. The experiment in a line: shrunken log2 fold change of peptide-encoding DNA abundance (4.5 h post-induction vs induction); higher = less antimicrobial activity (less host growth inhibition). The note with it: time post-induction: 4.5 h; library: site-saturation at positions 5, 18, 19, 20.
Turning to RRIRWRPPRLPRPRPRPPWQPRP, the “shrunken log2 fold change” value was 0.289. In the case of RRIRYRPPRLPRPRPRPWFIPRP it was -0.054; in that of RRIRFRPPRLPRPRPRPYEKPRP, -0.075; in that of RRIRSRPPRLPRPRPRPHPMPRP, -0.236. Regarding RRIRFRPPRLPRPRPRPPISPRP, the “shrunken log2 fold change” value is -0.239. The result for RRIRIRPPRLPRPRPRPTRAPRP reads 0.561.

As to RRIRLRPPRLPRPRPRPEWYPRP, the “shrunken log2 fold change” value stood at 0.0934. The result for RRIRPRPPRLPRPRPRPDRQPRP reads 0.099. Turning to RRIRHRPPRLPRPRPRPDMKPRP, the “shrunken log2 fold change” value was -0.0644. The result for RRIRSRPPRLPRPRPRPVPSPRP reads 0.391; that for RRIRVRPPRLPRPRPRPQRKPRP, 0.0451; that for RRIRGRPPRLPRPRPRPCAAPRP, 1.89. Take RRIRTRPPRLPRPRPRPAYKPRP: the “shrunken log2 fold change” value was found to be 0.0328. RRIRYRPPRLPRPRPRPNMKPRP: the “shrunken log2 fold change” value was -0.815. In the case of RRIRPRPPRLPRPRPRPVASPRP it was 0.00755. In the case of RRIRDRPPRLPRPRPRPYTYPRP it was 0.0218; in that of RRIRDRPPRLPRPRPRPEWIPRP, 0.0504. For the sequence RRIRLRPPRLPRPRPRPWIIPRP, the “shrunken log2 fold change” value is -0.631. In the case of RRIRQRPPRLPRPRPRPNATPRP it was 0.251; in that of RRIRVRPPRLPRPRPRPISCPRP, 0.0771. In the case of RRIRRRPPRLPRPRPRPEKNPRP it was 0.289; in that of RRIRHRPPRLPRPRPRPCNYPRP, -0.084. In the case of RRIRGRPPRLPRPRPRPKRHPRP it was 1. As for RRIRIRPPRLPRPRPRPLHVPRP, the “shrunken log2 fold change” value is -0.135. In the case of RRIRPRPPRLPRPRPRPSKHPRP it was -0.441. The result for RRIRQRPPRLPRPRPRPRGIPRP reads -0.107; that for RRIRCRPPRLPRPRPRPRAPPRP, 0.87; that for RRIRERPPRLPRPRPRPEQIPRP, -0.207. As for RRIRKRPPRLPRPRPRPWETPRP, the “shrunken log2 fold change” value came to 0.696. The result for RRIRMRPPRLPRPRPRPVVVPRP reads -0.0177; that for RRIRWRPPRLPRPRPRPGLPPRP, 0.288; that for RRIRPRPPRLPRPRPRPAGVPRP, 0.392. The result for RRIRMRPPRLPRPRPRPRHEPRP reads 0.532; that for RRIRIRPPRLPRPRPRPMPHPRP, -0.0728; that for RRIRIRPPRLPRPRPRPEMKPRP, -0.037. In the case of RRIRKRPPRLPRPRPRPSENPRP it was 0.101; in that of RRIRCRPPRLPRPRPRPWDIPRP, -0.179. Regarding RRIRRRPPRLPRPRPRPNNCPRP, the “shrunken log2 fold change” value stood at 0.129. Turning to RRIRFRPPRLPRPRPRPWVCPRP, the “shrunken log2 fold change” value was 0.029. On to RRIRHRPPRLPRPRPRPPTAPRP, for which the “shrunken log2 fold change” value came to 0.212.

RRIRKRPPRLPRPRPRPRCVPRP: the “shrunken log2 fold change” value came to 0.276.

For RRIRERPPRLPRPRPRPVCWPRP, the “shrunken log2 fold change” value worked out at 0.337. As to RRIRARPPRLPRPRPRPMCLPRP, the “shrunken log2 fold change” value was found to be 0.0284. The result for RRIRPRPPRLPRPRPRPPFWPRP reads 0.767. The result for RRIRQRPPRLPRPRPRPQFAPRP reads -0.00983; that for RRIRTRPPRLPRPRPRPYAQPRP, -0.495; that for RRIRDRPPRLPRPRPRPWMQPRP, -0.0999. RRIRDRPPRLPRPRPRPAISPRP: the “shrunken log2 fold change” value is -0.0409.

Consider RRIRRRPPRLPRPRPRPGCNPRP, for which the “shrunken log2 fold change” value is 0.327. In the case of RRIRGRPPRLPRPRPRPIKWPRP it was 0.434. In the case of RRIRKRPPRLPRPRPRPHTNPRP it was 0.192. The result for RRIRCRPPRLPRPRPRPHGWPRP reads 0.267; that for RRIRNRPPRLPRPRPRPPFPPRP, 0.309; that for RRIRARPPRLPRPRPRPAGRPRP, 0.723. In the case of RRIRWRPPRLPRPRPRPSWFPRP, the “shrunken log2 fold change” value is -0.0343. In the case of RRIRIRPPRLPRPRPRPMFAPRP it was -0.00719. In the case of RRIRNRPPRLPRPRPRPEHRPRP it was -0.226; in that of RRIRHRPPRLPRPRPRPSPGPRP, -0.051; in that of RRIRFRPPRLPRPRPRPSLTPRP, -0.413.

Turning to RRIRARPPRLPRPRPRPTTLPRP, the “shrunken log2 fold change” value is 0.067. The result for RRIRLRPPRLPRPRPRPDDEPRP reads -0.0861; that for RRIRERPPRLPRPRPRPNEHPRP, -0.445; that for RRIRNRPPRLPRPRPRPCKWPRP, -0.339. The result for RRIRVRPPRLPRPRPRPTNAPRP reads -0.211. The result for RRIRRRPPRLPRPRPRPINMPRP reads -0.271; that for RRIRARPPRLPRPRPRPCEFPRP, 0.168. As to RRIRLRPPRLPRPRPRPEHTPRP, the “shrunken log2 fold change” value stood at 0.0956. The result for RRIRMRPPRLPRPRPRPKKWPRP reads 0.962; that for RRIRSRPPRLPRPRPRPIHIPRP, -0.157; that for RRIRNRPPRLPRPRPRPLRKPRP, -0.099.

On to RRIRPRPPRLPRPRPRPMLDPRP, for which the “shrunken log2 fold change” value stood at 0.071. In the case of RRIRDRPPRLPRPRPRPIFWPRP it was 0.0145; in that of RRIRARPPRLPRPRPRPRVDPRP, 0.419; in that of RRIRFRPPRLPRPRPRPEMHPRP, -0.195. RRIRCRPPRLPRPRPRPDSRPRP: the “shrunken log2 fold change” value was found to be 0.0735. For the sequence RRIRFRPPRLPRPRPRPHPEPRP, the “shrunken log2 fold change” value is -0.00858.

For RRIRKRPPRLPRPRPRPKPYPRP, the “shrunken log2 fold change” value was found to be 0.307. The result for RRIRPRPPRLPRPRPRPQCYPRP reads -0.44; that for RRIRSRPPRLPRPRPRPWMNPRP, -0.267; that for RRIRPRPPRLPRPRPRPNVCPRP, -0.169.

RRIRMRPPRLPRPRPRPRACPRP: the “shrunken log2 fold change” value was found to be 0.593.

Take RRIRFRPPRLPRPRPRPQHFPRP: the “shrunken log2 fold change” value amounted to 0.205. The result for RRIRVRPPRLPRPRPRPFAPPRP reads 0.0601; that for RRIRWRPPRLPRPRPRPEWPPRP, 0.956. In the case of RRIRCRPPRLPRPRPRPGMIPRP it was -0.0447; in that of RRIRGRPPRLPRPRPRPPDVPRP, 0.0671.

RRIRCRPPRLPRPRPRPNNCPRP: the “shrunken log2 fold change” value was -0.636. The result for RRIRRRPPRLPRPRPRPHLAPRP reads -0.0318; that for RRIRERPPRLPRPRPRPRILPRP, -0.202; that for RRIRFRPPRLPRPRPRPLPLPRP, 0.0222.

For the sequence RRIRERPPRLPRPRPRPAMFPRP, the “shrunken log2 fold change” value was -1.09. On to RRIRNRPPRLPRPRPRPSKFPRP, for which the “shrunken log2 fold change” value was -0.601. The result for RRIRQRPPRLPRPRPRPKQAPRP reads 0.0135; that for RRIRLRPPRLPRPRPRPKYDPRP, -0.0843; that for RRIRHRPPRLPRPRPRPHTYPRP, -0.79. On to RRIRNRPPRLPRPRPRPLDIPRP, for which the “shrunken log2 fold change” value is 0.0164. In the case of RRIRSRPPRLPRPRPRPIMHPRP it was -0.455; in that of RRIRFRPPRLPRPRPRPVPIPRP, -0.0344; in that of RRIRIRPPRLPRPRPRPKAKPRP, 0.329. Turning to RRIRKRPPRLPRPRPRPEPEPRP, the “shrunken log2 fold change” value stood at 1.34. In the case of RRIRYRPPRLPRPRPRPAYAPRP it was -0.236; in that of RRIRMRPPRLPRPRPRPPPYPRP, 1.15. The result for RRIRPRPPRLPRPRPRPSRVPRP reads 0.269. Turning to RRIRTRPPRLPRPRPRPTFSPRP, the “shrunken log2 fold change” value was -0.169. The result for RRIRQRPPRLPRPRPRPEQLPRP reads -0.0643; that for RRIRKRPPRLPRPRPRPPPWPRP, 1.03; that for RRIRGRPPRLPRPRPRPDFDPRP, 0.612. In the case of RRIRWRPPRLPRPRPRPTATPRP it was 0.528; in that of RRIRYRPPRLPRPRPRPDRRPRP, -0.177; in that of RRIRTRPPRLPRPRPRPLRRPRP, 0.323.

As to RRIRARPPRLPRPRPRPDQSPRP, the “shrunken log2 fold change” value stood at 0.113. The result for RRIRLRPPRLPRPRPRPGQDPRP reads 0.0899. The result for RRIRKRPPRLPRPRPRPYQCPRP reads -0.0062.

RRIRIRPPRLPRPRPRPGQYPRP: the “shrunken log2 fold change” value was -0.221. As to RRIRTRPPRLPRPRPRPVRRPRP, the “shrunken log2 fold change” value was 0.38. As for RRIRVRPPRLPRPRPRPKMEPRP, the “shrunken log2 fold change” value was -0.0457. The result for RRIRMRPPRLPRPRPRPLHWPRP reads 0.116; that for RRIRQRPPRLPRPRPRPGVNPRP, -0.343; that for RRIRDRPPRLPRPRPRPNRGPRP, -0.0177. In the case of RRIRCRPPRLPRPRPRPDEVPRP it was 0.00585; in that of RRIRERPPRLPRPRPRPNDWPRP, -0.133. In the case of RRIRYRPPRLPRPRPRPQRAPRP it was -0.374; in that of RRIRDRPPRLPRPRPRPHPQPRP, 0.256; in that of RRIRDRPPRLPRPRPRPVQDPRP, 0.0144. In the case of RRIRRRPPRLPRPRPRPPFTPRP, the “shrunken log2 fold change” value came to 0.0961.
